Measurements published in the supplement of paper PMC7125110.
± gives the standard error. For part of these data: Fewer inactive variants are shown than the library holds.

B1: glmS ribozyme (parent)
chain: AUAAAAGCGCCAGAACUACAGAAAUGUAGUUGACGAGGAGGAGGUUUAUCGAAUUUUCGGCGGAUGCCUCCAAA

Columns and labels:
Settings in all cases: with glucosamine-6-phosphate
[1] = variants of: B1; experiment: kcat; higher = faster cleavage; RNA array
How it was run: (§1)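 Tiles of sequenced MiSeq chips were imaged over ~14 h at 37 °C. On them, barcoded ribozyme variants had been transcribed in situ by E. coli RNA polymerase and were tracked via a hybridised Cy3 probe while glucosamine-6-phosphate (40 μM to 10 mM) in HEPES/KCl/Mg(OAc)2 buffer flowed in. Per-tile medians, normalised to baseline and to non-cleaving reference variants, were fit to one- or two-exponential decays for kobs, and weighted Michaelis–Menten fits gave kcat and KM.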

[2] = variants of: B1; experiment: self-cleavage kobs at 40 uM GlcN6P; higher = faster cleavage; RNA array
How it was run: as §1

[3] = variants of: B1; experiment: KM; higher = weaker cofactor use; RNA array
How it was run: as §1

[4] = variants of: B1; experiment: self-cleavage kobs at 160 uM GlcN6P; higher = faster cleavage; RNA array
How it was run: as §1

[5] = variants of: B1; experiment: self-cleavage kobs at 640 uM GlcN6P; higher = faster cleavage; RNA array
How it was run: as §1

[6] = variants of: B1; experiment: self-cleavage kobs at 2500 uM GlcN6P; higher = faster cleavage; RNA array
How it was run: as §1

[7] = variants of: B1; experiment: self-cleavage kobs at 10000 uM GlcN6P; higher = faster cleavage; RNA array
How it was run: as §1

With U30C U46A the kcat [1] was 1.46e-05 ± 6.8e-06 s⁻¹ and the “self-cleavage kobs at 40 uM GlcN6P” value [2] was less than 1e-05 s⁻¹.

G29U G38A G59A C67A U69G was tested, and the kcat [1] was 2.86e-05 ± 6.2e-06 s⁻¹.

With G29U U45G the kcat [1] was 0.000648 ± 0.00013 s⁻¹, the KM [3] was 1660 ± 680 µM and the “self-cleavage kobs at 160 uM GlcN6P” value [4] was 3.73e-05 ± 1.2e-05 s⁻¹. For the same variant, the “self-cleavage kobs at 640 uM GlcN6P” value [5] was 0.000217 ± 2.8e-05 s⁻¹, the “self-cleavage kobs at 2500 uM GlcN6P” value [6] was 0.00064 ± 0.00013 s⁻¹ and the “self-cleavage kobs at 10000 uM GlcN6P” value [7] was 0.000522 ± 5.5e-05 s⁻¹.

For G29U U45A, the kcat [1] was 0.0141 ± 0.0034 s⁻¹, the KM [3] was 2740 ± 820 µM and the “self-cleavage kobs at 40 uM GlcN6P” value [2] was 0.000225 ± 4.9e-05 s⁻¹. The “self-cleavage kobs at 160 uM GlcN6P” value [4] was 0.000796 ± 0.00018 s⁻¹, the “self-cleavage kobs at 640 uM GlcN6P” value [5] was 0.00237 ± 0.00044 s⁻¹ and the “self-cleavage kobs at 2500 uM GlcN6P” value [6] was 0.00765 ± 0.0017 s⁻¹. The “self-cleavage kobs at 10000 uM GlcN6P” value [7] was 0.0103 ± 0.005 s⁻¹.

G29U G41C U54G C70G was tested, and the kcat [1] was 0.0128 ± 0.0056 s⁻¹, the “self-cleavage kobs at 40 uM GlcN6P” value [2] was 0.00037 ± 9.8e-05 s⁻¹ and the “self-cleavage kobs at 640 uM GlcN6P” value [5] was 0.00251 ± 0.00059 s⁻¹. The “self-cleavage kobs at 2500 uM GlcN6P” value [6] was 0.0068 ± 0.0018 s⁻¹ and the “self-cleavage kobs at 10000 uM GlcN6P” value [7] was 0.0126 ± 0.0039 s⁻¹.

For G29U G43A, the kcat [1] was less than 1e-05 s⁻¹, the “self-cleavage kobs at 40 uM GlcN6P” value [2] was less than 1e-05 s⁻¹ and the “self-cleavage kobs at 160 uM GlcN6P” value [4] was less than 1e-05 s⁻¹.

In the case of U31C U54C, the kcat [1] is reported as 0.00689 ± 0.0027 s⁻¹, the “self-cleavage kobs at 40 uM GlcN6P” value [2] is reported as 0.000101 ± 1.8e-05 s⁻¹ and the “self-cleavage kobs at 160 uM GlcN6P” value [4] is reported as 0.000254 ± 4.6e-05 s⁻¹. For the same variant, the “self-cleavage kobs at 640 uM GlcN6P” value [5] was 0.00134 ± 0.00024 s⁻¹, the “self-cleavage kobs at 2500 uM GlcN6P” value [6] was 0.00166 ± 0.00057 s⁻¹ and the “self-cleavage kobs at 10000 uM GlcN6P” value [7] was 0.00579 ± 0.00087 s⁻¹.

In the case of U31C U54G, the kcat [1] is reported as 0.00413 ± 0.0012 s⁻¹, the KM [3] is reported as 1770 ± 710 µM and the “self-cleavage kobs at 40 uM GlcN6P” value [2] is reported as 0.000143 ± 2.5e-05 s⁻¹. The “self-cleavage kobs at 160 uM GlcN6P” value [4] was 0.000283 ± 4.9e-05 s⁻¹, the “self-cleavage kobs at 640 uM GlcN6P” value [5] was 0.00116 ± 0.00017 s⁻¹ and the “self-cleavage kobs at 2500 uM GlcN6P” value [6] was 0.00211 ± 0.0004 s⁻¹. The “self-cleavage kobs at 10000 uM GlcN6P” value [7] was 0.00388 ± 0.00065 s⁻¹.

For U31C A42U, the kcat [1] was 1.58e-05 ± 4.1e-06 s⁻¹, the “self-cleavage kobs at 40 uM GlcN6P” value [2] was less than 1e-05 s⁻¹ and the “self-cleavage kobs at 160 uM GlcN6P” value [4] was less than 1e-05 s⁻¹.

For U30A U47A, the kcat [1] was 0.00539 ± 0.0011 s⁻¹, the KM [3] was 3150 ± 930 µM and the “self-cleavage kobs at 160 uM GlcN6P” value [4] was 0.000206 ± 5.9e-05 s⁻¹. For the same variant, the “self-cleavage kobs at 640 uM GlcN6P” value [5] was 0.000968 ± 0.00012 s⁻¹, the “self-cleavage kobs at 2500 uM GlcN6P” value [6] was 0.0025 ± 0.00032 s⁻¹ and the “self-cleavage kobs at 10000 uM GlcN6P” value [7] was 0.00373 ± 0.00086 s⁻¹.

With U31A U69A the kcat [1] was 0.000105 ± 2.5e-05 s⁻¹, the “self-cleavage kobs at 160 uM GlcN6P” value [4] was 7.05e-05 ± 1.9e-05 s⁻¹ and the “self-cleavage kobs at 640 uM GlcN6P” value [5] was 7.66e-05 ± 2.3e-05 s⁻¹. For the same variant, the “self-cleavage kobs at 2500 uM GlcN6P” value [6] was 0.000163 ± 2.9e-05 s⁻¹ and the “self-cleavage kobs at 10000 uM GlcN6P” value [7] was 7.86e-05 ± 2.1e-05 s⁻¹.

In the case of U30C U65G, the kcat [1] is reported as 7.96e-05 ± 3.5e-06 s⁻¹, the KM [3] is reported as 1130 ± 230 µM and the “self-cleavage kobs at 640 uM GlcN6P” value [5] is reported as 3.09e-05 ± 1e-05 s⁻¹. For the same variant, the “self-cleavage kobs at 2500 uM GlcN6P” value [6] was 4.99e-05 ± 1.1e-05 s⁻¹ and the “self-cleavage kobs at 10000 uM GlcN6P” value [7] was 7.23e-05 ± 6.6e-06 s⁻¹.

With U30C G59A the kcat [1] was less than 1e-05 s⁻¹.

U31C G41C was tested, and the kcat [1] was 4.88e-05 ± 2e-05 s⁻¹.

U30C C71G was tested, and the kcat [1] was 4.29e-05 ± 9.8e-06 s⁻¹, the “self-cleavage kobs at 640 uM GlcN6P” value [5] was 4.3e-05 ± 1.8e-05 s⁻¹ and the “self-cleavage kobs at 2500 uM GlcN6P” value [6] was 7.05e-05 ± 1.2e-05 s⁻¹. For the same variant, the “self-cleavage kobs at 10000 uM GlcN6P” value [7] was 3.35e-05 ± 7.1e-06 s⁻¹.

G29U G41U was tested, and the kcat [1] was 8.68e-05 ± 1.2e-05 s⁻¹, the KM [3] was 651 ± 270 µM and the “self-cleavage kobs at 640 uM GlcN6P” value [5] was 5.08e-05 ± 1.6e-05 s⁻¹. For the same variant, the “self-cleavage kobs at 2500 uM GlcN6P” value [6] was 6.65e-05 ± 2.9e-05 s⁻¹ and the “self-cleavage kobs at 10000 uM GlcN6P” value [7] was 7.94e-05 ± 2.1e-05 s⁻¹.

In the case of U30C G66A C67U, the kcat [1] is reported as 6.3e-05 ± 4e-06 s⁻¹, the KM [3] is reported as 2940 ± 580 µM and the “self-cleavage kobs at 2500 uM GlcN6P” value [6] is reported as 2.96e-05 ± 1.2e-05 s⁻¹. The “self-cleavage kobs at 10000 uM GlcN6P” value [7] was 4.86e-05 ± 1e-05 s⁻¹.

With U30C A53C the kcat [1] was 3.34e-05 ± 6.8e-06 s⁻¹, the “self-cleavage kobs at 160 uM GlcN6P” value [4] was less than 1e-05 s⁻¹ and the “self-cleavage kobs at 2500 uM GlcN6P” value [6] was 3.87e-05 ± 9.7e-06 s⁻¹. For the same variant, the “self-cleavage kobs at 10000 uM GlcN6P” value [7] was 2.78e-05 ± 9e-06 s⁻¹.
